Test results taken from article PMC5940254 (The Journal of General Physiology, 2018).
Like-named read-outs stand apart in the source and are kept apart here.

What was measured:
Assay in all cases: single-molecule pull-down
[1] = biological target: Ci-VSP phosphatase-only protein (PDo) (Ciona intestinalis)
[2] = biological target: Ci-VSP phosphatase-only protein (PDo) (Ciona intestinalis); remark: listed apart in the source
[3] = biological target: Ci-VSP voltage-sensing domain only protein (VSDo) (Ciona intestinalis)
[4] = biological target: Ci-VSP voltage-sensing domain only protein (VSDo) (Ciona intestinalis); remark: listed apart in the source
[5] = biological target: the molecule itself

How did the percent of spots bleaching in a single step [1] turn out when “Ci-VSP phosphatase-only protein (PDo) (domain or fragment)” was run?
Its percent of spots bleaching in a single step is 57%.

What about the percent of spots bleaching in two steps [1] of the same molecule?
The percent of spots bleaching in two steps was 34%.

And the percent of spots bleaching in a single step [2]?
The percent of spots bleaching in a single step was 80%.

What about the stoichiometry N [2] of the same molecule?
Its stoichiometry N is 2.

For “Ci-VSP voltage-sensing domain only protein (VSDo) (domain or fragment)”, which percent of spots bleaching in a single step [3] is on record?
Its percent of spots bleaching in a single step is 37%.

What about the percent of spots bleaching in two steps [3] of the same molecule?
The percent of spots bleaching in two steps was 55%.

What about the percent of spots bleaching in a single step [4] of the same molecule?
The percent of spots bleaching in a single step was 65%.

What about the stoichiometry N [4] of the same molecule?
Its stoichiometry N is 2.

B1: TREK1 channel, HA- and/or GFP-tagged (dimer and monomer controls) (natural protein)
chain: MLASASRERPGYTAGVAAPDLLDPKSAAQNSKPRLSFSSKPTVLASRVESDSAINVMKWKTVSTIFLVVVLYLIIGATVFKALEQPQEISQRTTIVIQKQTFIAQHACVNSTELDELIQQIVAAINAGIIPLGNSSNQVSHWDLGSSFFFAGTVITTIGFGNISPRTEGGKIFCIIYALLGIPLFGFLLAGVGDQLGTIFGKGIAKVEDTFIKWNVSQTKIRIISTIIFILFGCVLFVALPAVIFKHIEGWSALDAIYFVVITLTTIGFGDYVAGGSDIEYLDFYKPVVWFWILVGLAYFAAVLSMIGDWLRVISKKTKEEVGEFRAHAAEWTANVTAEFKETRRRLSVEIYDKFQRATSVKRKLSAELAGNHNQELTPCRRTLSVNHLTSEREVLPPLLKAESIYLNGLTPHCAGEDIAVIENMK
For B1, which “stoichiometry N” value [5] is on record?
The value was 2.

B2: ASIC1A channel, HA- and GFP-tagged (trimer control) (natural protein)
chain: MELKTEEEEVGGVQPVSIQAFASSSTLHGLAHIFSYERLSLKRALWALCFLGSLAVLLCVCTERVQYYFCYHHVTKLDEVAASQLTFPAVTLCNLNEFRFSQVSKNDLYHAGELLALLNNRYEIPDTQMADEKQLEILQDKANFRSFKPKPFNMREFYDRAGHDIRDMLLSCHFRGEACSAEDFKVVFTRYGKCYTFNSGQDGRPRLKTMKGGTGNGLEIMLDIQQDEYLPVWGETDETSFEAGIKVQIHSQDEPPFIDQLGFGVAPGFQTFVSCQEQRLIYLPSPWGTCNAVTMDSDFFDSYSITACRIDCETRYLVENCNCRMVHMPGDAPYCTPEQYKECADPALDFLVEKDQEYCVCEMPCNLTRYGKELSMVKIPSKASAKYLAKKFNKSEQYIGENILVLDIFFEVLNYETIEQKKAYEIAGLLGDIGGQMGLFIGASILTVLELFDYAYEVIKHRLCRRGKCQKEAKRSSADKGVALSLDDVKRHNPCESLRGHPAGMTYAANILPHHPARGTFEDFTC
With B2 as the molecule, how does the “stoichiometry N” value [5] read?
The value was 3.
